Experimental data published in a protein production outcome set (Wang et al. 2014).

Assay: label from the status in PepcDB records

Sequence	protein production
MKILVTGGTGLIGRHFISAFNHKYQFTVLTRNTQKAQLYLPKNIEFIEQLPEQNYFDVIINLAGEPIIDKRWSRAQKENICQSRWNITEKIVEMIARATDKPSCLISGSAIGYYGETGAVSTHEDAKVTHSDFAHTLCQKWEELALKAKEHCRVVLLRTGIVLASDGGALEKMRLPFSLGLGGKLGNGQQYMSWIHIDDMIHAIHFSVQIKCIEGAINCTSPKAITNEVFTKALGKEVNRPTWFSVPAFVLNILMGQGAELLLTSQNIYPQKLLSHGFHFNHSDIEHALADLMTES	failed
MKILYPTDFSEVSQKALTECVPSIILGIGEGSELILLHVVDITASEIGALELAEVDKEELNNLASQLREKGIKVKPIVRIGIPSLEISEVAKEENVDLIIIPSKGENILRQMLLGSTASNLARITHKPVLLLRYEVENGEIKSLQDCSRIFEKPLVALDLSKCSEKIIETIKDLPGVREAVLFHVVDYGKVEELENNIKNAKEKLSKYGKLLPWKTKIEVQAGIASKGIIGAAIDNNVTLVVIGKKGRSVLKDLLLGSTAERVIRDCKLPTLLIPCE	failed
MKINQLWQEPKQRSKRYYLLDNIFSAITHGIGFGLAIAGLVVLIVKAAHTGSPMRIVTFTIYGACLVLLYLFSTLYHSLVFTRAKNVFQIFDHSSIFLLIAGSYTPYSLVAIGGVWGWTLFGLIWGLTIFGIIYYVFNRGKHVIFDTILYVAMGWLVILSGPYLYVRLSSTGFWLLVGGGIAYTIGAILFSMRSVPFIHTIWHLFIILGSILMYFSVLLYV	failed
MKIPKIYVEGELNDGDRVAIEKDGNAIIFLEKDEEYSGNGKLLYQVIYDDLAKYMSLDTLKKDVLIQYPDKHTLTYLKAGTKLISVPAEGYKVYPIMDFGFRVLKGYRLATLESKKGDLRYVNSPVSGTVIFMNEIPSERANYVFYMLEE	not failed
MKIRDLLKARRGPLFSFEFFPPKDPEGEEALFRTLEELKAFRPAFVSITYGAMGSTRERSVAWAQRIQSLGLNPLAHLTVAGQSRKEVAEVLHRFVESGVENLLALRGDPPRGERVFRPHPEGFRYAAELVALIRERYGDRVSVGGAAYPEGHPESESLEADLRHFKAKVEAGLDFAITQLFFNNAHYFGFLERARRAGIGIPILPGIMPVTSYRQLRRFTEVCGASIPGPLLAKLERHQDDPKAVLEIGVEHAVRQVAELLEAGVEGVHFYTLNKSPATRMVLERLGLRPASGQP	not failed
MKIRFISLASGSSGNCYYLGTEKYGILIDAGIGIRTIKKSLKDINVTMDSIRAVFITHDHADHIKAVGHLGEKLNIPVYTTARVHAGINKSYCMTEKLHGSVRYLEKEEPMLLEDFRIESFEVPHDGTDNVGYCIEIDGKVFSFLTDLGEITPTAARYICKAHYLIIEANYDEEMLRMGPYPTYLKERISSKTGHMSNIDTANFLAENIMEHLRYIWLCHLSKDNNHPELAYKTVEWKLKSKGIIVGKDVQLLALKRNTPSELYEFE	failed
MKIRILGSGTSTGVPEIGCTCAVCTSKDPRDCRLRTSALVYTDDATILLDCGPDFREQMLRVPFGKIDAVLISHEHYDHVGGLDDLRPFCRFGEVPIYAETYTAERLRSRMPYCFVEHSYPGVPNIPLREIEPNRPFLVNHTEVLPLRVMHGKLPILGYRIGKLGYITDMLTMPDESFEQLQGIEVLVMNALRIAPHNTHQSLSEALEAVKRIGAKETWLIHMSHHIGLQADVEKQLPPHVHFAFDGLELECLEHHHHHH	failed
MKIRTTLTLQYAGITAAVFFAFVIAVYYVSEHSRSNAFFRNLQSEAITKAHLFLNNQVDAKTMQSIYLNNQKFINEVEVAVYTTDFKILYHDALQNDIVKETPEMVKRILKRKNISFYVDEYQAIGLVYPFEGQYYIVTAAAYDGYGYANRDALRNMLILLFIGGLSVLAIVGYILSRSTLKPIRNIVREAEKITASHIDKRLPVKNEQDELGELSITFNALLERLEKSFNSQKMFVSNVSHELRTPMAALTAELDLALLKERTSGQYQAAIGNALQDSRRIINLIDGLLNLAKADYQSEQITMEEVRLDELLLDARELVLKAHPDYHIELVFEQEAEEDNVLTVIGNSYLLTTAFVNLVENNCKYSSNRTSSVLIAYWEQWAIIRLSDNGVGMSDADKENLFKLFYRGENKNIAPGNGIGMVLTQKIIHLHKGELTVSSHKDEGTTFVVKLPHI	failed
MKIRVDDITDQPKILSFQEPSEAFPSLAELQATGESEFLSPLMVELAVSKEYGHIRVKGSVAVKIRFVCSRCLVPFDADISSAFTMFYSEGSRIDSDEDEIELAEEDLVSVFYEGDEIDFAPEIAEQVIMELPLKPLCGEGCKGLCVTCGADLNEGECGCERTTFNVKFSALKNFKVEKLEHHHHHH	not failed
MKISIITAVYNDPRVERCLDSVASQQGNFEVEHIVVDSESTDDTVDVIEQYENHIDCLISEPDDGMYDAINKGIEAATGDVIGLLNADDYYQDQRVLHDVASQLAETGADACYGDLVYVDADDDVVRYWKSDEYSRYKLYYGWMPPHPTFFVRHEIYERHGGFDLSYEISADYELMIRLLLNTDISVTYLDRVLVRMELGGMSNQSIENMLTVIEDMYRGWKKHNRLGRFVAPFLHPVEKVPQFIRSPPGEKEGTLEHHHHHH	failed
MKITTKGRYGLTITLELAKRIGDGPISLRSIAQDKNLSEHYLEQLIGPLRNAGIVKSIRGAHGGYVLNGDPEKITAGDIIRTLEGPIVLVESMEDEEAAQRELWTRMRNAVRDVLDQTTLSDLLKHSTDSELTDGYMFYI	not failed
MKITVIVPTYRRTKDLTRCLESLEKQSRPADEVLVVVRDTDVETWQFLETIAPHSLPLHTTTVRVPGVVAAMNAGLDIAQGDIIAFTDDDAAPHSNWLAQIETHFLAHEQIAGVGGRDWVYHGDRLEDGTCPVVGQVHWFGRVIGNHHIGIGKPREVDVLKGVNMSFRRSAVHGLRFDQRMLGTGAQVHFEVAFCLALKRAGWKLIYDPQIGVNHYLEHHHHHH	failed
MKKGTVLNSEISSVISRLGHTDTLVVCDAGLPIPNSTARIDMALTQGVPSFMQVVDVVTREMQVEAAILATEIKQQNPQLHETLLTHLEQLQQHQGNTIKISYTTHEQFKKLTADSQAVIRSGECSPYANVILCAGVTF	not failed
MKKIATATIATAGIATFGLAHQDADAAENNNGYNPNDPYSYSYTYTIDQQGNYHYEWQGNWSPSQAQQGGQQNTGNQAVNNTQSNNNYNYNYNNNQSNQNTQSYTANNNAGGGLGASYSTSDRNVKVTTQNAPTTQSTSSNASSSSSSEALAGKSSGGSNLYTAGQCTYYVYDKVGGKIGSTWGNANNWATAAAADGYTVNNTPKAGAVMQTSQGAYGHVAYVESVNDDGSVKVSEMNYNGGPGVVSSRTISAGQAGSYNYIS	failed
MKKIKALALFSGGLDSLLSMKLLIDQGIEVTALHFNIGFGGNKDKREYFENATAQIGAKLLVCDIREQFFNDVLFKPKYGYGKYFNPCIDCHANMFRNAFYKMLELNADFVLSGEVLGQRPKSQRKEALNQVRKLVREVGEEARFDPVLDRTQAGGKKPQFLDELLLRPMSAKLLEPTFMEKKGFVDREKLLDVSGRGRSRQLQMIKDYGLKYYEKPGGGCLLTDIQVSNKIKNLKEYREMVFEDSVIVKNGRYFVLPHNARLVVARNEEENHKLDIQHPLMDKIELLNCKGPLSLVDKNASKEDKELAGRIALGYAKTLKNQAYLIQIGDEKRELYPLDKENAREYLFA	failed
MKKILALILIIYSSSVFSHFSHFEPRIIHLYQDNQDTIILMRMPLPLILLDENWKGIDSKQNIPYTNKVNNSGYLIDPEKITKNLDDFKKSITPGYTIKKNGVVQNYHIESINIFNSDDRKPFSSLKTAEENFTSDVTIRPSATKLFDAGIDIKLRISNTSVINDDISISSILGDKFNAINKLANIINLHRDIANESVTTTLGILDYSSTHLPSMTQQLINGFSDGFIHILIGLDHVLFVLLLFYSAASFLKLLSLATAFTFGHSFSLFFGDNIAIASPIFIPGIELLIALTIAFTAIALLLKKAQHLGTTPLLVIGVIHGFGFSFVFNELEKEGAQTSITNLLSFNFGIEAGQLFIYALAFTMTILIKKQTVLVKKLPYYVSVCALVISAYWVVTRSMPLFDYIVI	failed
